Reference: PMC6155162, “Identification of mesothelioma-specific sialylated epitope recognized with monoclonal antibody SKM9-2 in a mucin-like membrane protein HEG1” (Scientific Reports, 2018)

Test system: SKM9-2
Experiment: Deglycosylation analysis: western blotting using SKM9-2 of neuraminidase-treated cell lysates
Assay type: binding
Conditions: full-length HEG1, lysates of ACC-MESO4 (native) or HEG1-transfected HEK293T, 6% SDS-PAGE
Source text: Figure 8 SKM9-2 epitope produced from mesothelioma cells. (a) Chromatogram of SKMepmin3 separation using anion exchange column. SKMepmin3 produced from HEK293T (blue line) or ACC-MESO4 (pink line) was affinity-purified using SKM9-2-immobilized resins and separated by Mini Q 4.6/50 PE. A major peak of SKMepmin3 purified from HEK293T contained two disialyl T antigens (Fig. 6). (b) Western blotting for epitope-fused GPI-anchor protein (7.6231) treated with neuraminidases. Cell lysate of 7.6231-transfected ACC-MESO1 (top panel), ACC-MESO4 (middle panel), or HEK293T (lower panel) was treated with α2-3 Neuraminidase S or Neuraminidase A, resolved by 4–15% SDS-PAGE, and analyzed by western blotting using SKM9-2. (c) Western blotting for full-length HEG1 treated with neuraminidases. Cell lysates of ACC-MESO4 (upper panel) and HEG1-transfected HEK293T (lower panel) were treated with α2-3 Neuraminidase S or Neuraminidase A and analyzed by 6% SDS-PAGE and western blotting using SKM9-2. (d) Schematic of SKM9-2 epitope. Full-length blots are presented in Supplementary Fig. S10.
Monolayer cells were solubilized with 20 mM Tris buffer (pH 8.0) containing 1% SDS, 1 mM phenylmethylsulfonyl fluoride, 125 mU/mL Benzonase Nuclease (Merck Millipore Co., Tokyo, Japan) (25 µL/cm^2 culture surface area). The lysate (10 µL/lane) was resolved by SDS-PAGE under reducing conditions using 6% polyacrylamide gels or 4–15% precast gels (Bio-Rad Laboratories Inc., Hercules, CA, USA). Then it was transferred to a polyvinylidene difluoride membrane (Immobilon-P; Merck Millipore Co.) by semi-dry blotting in a buffer containing 25 mM Tris, 192 mM glycine, 0.1% SDS, and 20% methanol. The membrane was blocked with 5% non-fat milk in 20 mM Tris-buffered saline (pH 7.2) containing 0.1% Tween 20 and reacted with 1 µg/mL of mAb SKM9-2 or anti-FLAG (Anti-DYKDDDDK tag mAb; 1E6, Wako Pure Chemical Industries, Osaka, Japan). After washing, it was treated with horseradish peroxidase-conjugated goat anti-mouse IgG (Jackson ImmunoResearch, West Grove, PA, USA), and developed with Amersham ECL select (GE Healthcare, Buckinghamshire, UK). Although glycan in non-fat milk often interferes the glycan-dependent binding of an antibody, the SKM9-2 binding was not affected by the blocking using non-fat milk, in comparison with 5% bovine serum albumin (Supplementary Fig. S6).
Cell lysate or SKMepmin3 was treated with α2-3 Neuraminidase S, α2-3, 6, 8, 9 Neuraminidase A, and O-Glycosidase (New England Biolabs Japan, Tokyo, Japan) in 50 mM sodium phosphate (pH 7.5) containing 1% Nonidet P-40, according to the manufacturer’s instructions. The cell lysate sample was resolved by 4–15% or 6% SDS-PAGE under reducing conditions and detected by western blotting using SKM9-2. The analysis of the SKMepmin3 sample was performed by SPR.

Molecule	SKM9-2 binding (western blot) (Neuraminidase A)	SKM9-2 binding (western blot) (α2–3 Neuraminidase S)
recombinant HEG1: full-length recombinant HEG1 (1-1481) expressed in HEK293T (protein, UniProt Q9ULI3 1-1381, looked up, full-length FLAG tag, full-length recombinant HEG1 (1-1481) expressed in HEK293T) MASPRASRWPPPLLLLLLPLLLLPPAAPGTRDPPPSPARRALSLAPLAGAGLELQLERRPEREPPPTPPRERRGPATPGPSYRAPEPGAATQRGPSGRAPRGGSADAAWKHWPESNTEAHVENITFYQNQEDFSTVSSKEGVMVQTSGKSHAASDAPENLTLLAETADARGRSGSSSRTNFTILPVGYSLEIATALTSQSGNLASESLHLPSSSSEFDERIAAFQTKSGTASEMGTERAMGLSEEWTVHSQEATTSAWSPSFLPALEMGELTTPSRKRNSSGPDLSWLHFYRTAASSPLLDLSSSSESTEKLNNSTGLQSSSVSQTKTMHVATVFTDGGPRTLRSLTVSLGPVSKTEGFPKDSRIATTSSSVLLSPSAVESRRNSRVTGNPGDEEFIEPSTENEFGLTSLRWQNDSPTFGEHQLASSSEVQNGSPMSQTETVSRSVAPMRGGEITAHWLLTNSTTSADVTGSSASYPEGVNASVLTQFSDSTVQSGGSHTALGDRSYSESSSTSSSESLNSSAPRGERSIAGISYGQVRGTAIEQRTSSDHTDHTYLSSTFTKGERALLSITDNSSSSDIVESSTSYIKISNSSHSEYSSFFHAQTERSNISSYDGEYAQPSTESPVLHTSNLPSYTPTINMPNTSVVLDTDAEFVSDSSSSSSSSSSSSSSGPPLPLPSVSQSHHLFSSILPSTRASVHLLKSTSDASTPWSSSPSPLPVSLTTSTSAPLSVSQTTLPQSSSTPVLPRARETPVTSFQTSTMTSFMTMLHSSQTADLKSQSTPHQEKVITESKSPSLVSLPTESTKAVTTNSPLPPSLTESSTEQTLPATSTNLAQMSPTFTTTILKTSQPLMTTPGTLSSTASLVTGPIAVQTTAGKQLSLTHPEILVPQISTEGGISTERNRVIVDATTGLIPLTSVPTSAKEMTTKLGVTAEYSPASRSLGTSPSPQTTVVSTAEDLAPKSATFAVQSSTQSPTTVSSSASVNSCAVNPCLHNGECVADNTSRGYHCRCPPSWQGDDCSVDVNECLSNPCPSTAMCNNTQGSFICKCPVGYQLEKGICNLVRTFVTEFKLKRTFLNTTVEKHSDLQEVENEITKTLNMCFSALPSYIRSTVHASRESNAVVISLQTTFSLASNVTLFDLADRMQKCVNSCKSSAEVCQLLGSQRRIFRAGSLCKRKSPECDKDTSICTDLDGVALCQCKSGYFQFNKMDHSCRACEDGYRLENETCMSCPFGLGGLNCGNPYQLITVVIAAAGGGLLLILGIALIVTCCRKNKNDISKLIFKSGDFQMSPYAEYPKNPRSQEWGREAIEMHENGSTKNLLQMTDVYYSPTSVRNPELERNGLYPAYTGLPGSRHSCIFPGQYNPSFISDESRRRDYF	lost	weakened
Native endogenous HEG1: native HEG1, 400 kDa mucin-like membrane protein, in ACC-MESO4 cells (protein, UniProt Q9ULI3 30-1381, looked up) Protein HEG homolog 1: TRDPPPSPARRALSLAPLAGAGLELQLERRPEREPPPTPPRERRGPATPGPSYRAPEPGAATQRGPSGRAPRGGSADAAWKHWPESNTEAHVENITFYQNQEDFSTVSSKEGVMVQTSGKSHAASDAPENLTLLAETADARGRSGSSSRTNFTILPVGYSLEIATALTSQSGNLASESLHLPSSSSEFDERIAAFQTKSGTASEMGTERAMGLSEEWTVHSQEATTSAWSPSFLPALEMGELTTPSRKRNSSGPDLSWLHFYRTAASSPLLDLSSSSESTEKLNNSTGLQSSSVSQTKTMHVATVFTDGGPRTLRSLTVSLGPVSKTEGFPKDSRIATTSSSVLLSPSAVESRRNSRVTGNPGDEEFIEPSTENEFGLTSLRWQNDSPTFGEHQLASSSEVQNGSPMSQTETVSRSVAPMRGGEITAHWLLTNSTTSADVTGSSASYPEGVNASVLTQFSDSTVQSGGSHTALGDRSYSESSSTSSSESLNSSAPRGERSIAGISYGQVRGTAIEQRTSSDHTDHTYLSSTFTKGERALLSITDNSSSSDIVESSTSYIKISNSSHSEYSSFFHAQTERSNISSYDGEYAQPSTESPVLHTSNLPSYTPTINMPNTSVVLDTDAEFVSDSSSSSSSSSSSSSSGPPLPLPSVSQSHHLFSSILPSTRASVHLLKSTSDASTPWSSSPSPLPVSLTTSTSAPLSVSQTTLPQSSSTPVLPRARETPVTSFQTSTMTSFMTMLHSSQTADLKSQSTPHQEKVITESKSPSLVSLPTESTKAVTTNSPLPPSLTESSTEQTLPATSTNLAQMSPTFTTTILKTSQPLMTTPGTLSSTASLVTGPIAVQTTAGKQLSLTHPEILVPQISTEGGISTERNRVIVDATTGLIPLTSVPTSAKEMTTKLGVTAEYSPASRSLGTSPSPQTTVVSTAEDLAPKSATFAVQSSTQSPTTVSSSASVNSCAVNPCLHNGECVADNTSRGYHCRCPPSWQGDDCSVDVNECLSNPCPSTAMCNNTQGSFICKCPVGYQLEKGICNLVRTFVTEFKLKRTFLNTTVEKHSDLQEVENEITKTLNMCFSALPSYIRSTVHASRESNAVVISLQTTFSLASNVTLFDLADRMQKCVNSCKSSAEVCQLLGSQRRIFRAGSLCKRKSPECDKDTSICTDLDGVALCQCKSGYFQFNKMDHSCRACEDGYRLENETCMSCPFGLGGLNCGNPYQLITVVIAAAGGGLLLILGIALIVTCCRKNKNDISKLIFKSGDFQMSPYAEYPKNPRSQEWGREAIEMHENGSTKNLLQMTDVYYSPTSVRNPELERNGLYPAYTGLPGSRHSCIFPGQYNPSFISDESRRRDYF	lost	weakened
